Source: the domain aggregation screens of Martell et al. (2025)

Test: soluble fraction after stress (log2 fold change); higher = more stays soluble; pooled small domains, quantitative proteomics
Conditions: stress: 75 degC
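Further: 20 min heating vs room temperature control held 20 min.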

Sequence	soluble fraction (log2)
HMAAAQILRAAVLRVPAEETMRFVTETPELRRYLGASLGPTAAIVRPGQEQNLAAALQSHGILVEFDE	-0.0423
HMAADLIGLEARVTLPLTEDQRGFIETSVRGSLVRRAALSASGRLDRGQRVVILRSEGTTLIVDAL	-3.37
HMAADRRKAERPLIDGQAVMDRFEVGPGPMVGKALKFLLALKRAEPDLDLAGTEERLDAWWNEQL	0.0606
HMAAEFERKNGIVYFFHSSEKPHLNYPHVHARYGEDTISISLRDFTVIGSFSSKKKQKEAVEYVKNK	-0.829
HMAAEPDQQLIKPASDPVLRTMKIEELMKMSEQVKIQMSKAAKNFDYLEAARLRDEHFALENLIKLRS	-0.106
HMAAGELSGEALIALIERHPMALSALATTFGHSESDLRAFVEPLARQGRLRLFESQGTLFVGGIG	-0.5
HMAAHHIILEEREQLSVSGVEEVESFDENTIVMLTNRGTLIVRGEELHIEKLSLDGGDLRVEGSIDSLTYE	-0.465
HMAAHWANFLEALRAGRARRVLVARGVEGWLLKELERLGAPYTLVPRIELDTLLRTTHHQGIAAEVE	-1.46
HMAAPELLTVRERQVAALISDGLSNQQIAHRLHLEVTTVKAHIGSIFNRLDMNNRVQIAIWAHDRQLVFS	-0.161
HMAAQDIILKRNAEQIEAIVKEITDTDVKYRKFTNTEGVTYSIRRSEVFSITYENGTMDLFA	0.248
HMAAQDLIVKTDASQVEARVLEISPDAVRYKRFSNPDGPTYVLPVAEIRYIRYANGEVEYYA	-0.624
HMAAQLAHVPAVTGRPLAEAQRILADNRLNAQVTQQPVAEPKLDGVVIAQKITEGTRTMRGATVPLIVGKY	-0.00421
HMAASGTVNSGGDPLRVRADPNTSSQILTKLSDGTQVEVLEQAENGWYKIAHEGISGFVSGEYLVVH	0.0197
HMAAVAPPVLERIASDLATRFAGTLSPETVDRYVRESYHLLAERAGITRYLPSLTARFAGDRLDA	0.0295
HMAAVEDLPVKSVNGKKYHYYTVQPKESLYSLSHKLGISRQEIIKYNPGVEDGLKAYEDLLFPYTPK	0.192
HMAAVSTDEEFAALGIPAEWIPVLKSNGFQTVESLKKVAPGALFNQLGGLRKKNKLEIAMPSLDQVKAWLA	0.333
HMADDFISTLFSEGIIIDTEVKQFAERQGSPLQFVRHIASNLPEPRDIITMGEVRSVMREGA	-0.00121
HMADEEEIMVPQVVGKTYDEAKSELENAGFKVEKNEKTSDKASGTVISQSINGGAKKGTSVTLTVSKGN	0.0356
HMADFYEVLGVERNASSDQIKRAYRKLARELHPDVNLDPVAQNRFKEVTEAYEVLSDPNKRSNFDRG	0.0366
HMADGEWAEMQRQLTAAGLLVVGRAAQERIQRLSDISPLIEAAQRSNVVMLSERTVDEVLTLVPT	-0.225
HMADGTSIYAEREVLYVTSPTANTAKVYNVSGALVRTMTLSAGQTVRTALPAGFYVVALGNGNTHKVIV	-2.4
HMADKSLLELPGLDGDKVSALVTAGVRNVNDLADLATDELVEKTGFDEKTAADLIIAARAVVY	0.43
HMADLNQTDIDSITKSVGGVEQYKSLMDWAGKTLSQDAIDSFDDLVNTGNKGSIQLAVNGLVAQYQNDN	0.167
HMADMKIHLRPYAHDTNRWHVDIRLMHPTAATEIRKRLVAPAGLSEAQARAWGERQVPTILGKALGVI	-1.65
HMADNILPAQTDAIKALATENGFSNESLEKYLIENYGTTIYGLSRNQGIQIINLFQSENPPKP	0.277
HMADQIIEGILGKEGGYVNNPNDKGGPTRWGITQTTARAYGYSGDMKALPRDTAKAIYLSQYWT	-0.0711

Sequence	soluble fraction (log2)
HMADTPQAYIRQMVQEAGADGIMLSTITDRLRARFKDFKVRDLGYAQMRQYMASTGTYDLEKSGRNFRVHL	-1.06
HMADTSLDHLGVLVRHASDVDAWAEFFENRGVTLASQPRTHRDGARSFYVDDPDGNRVQVIYHPPI	-0.779
HMADWTETELAALRRAYASGTTRVSYDGKSVDYGSAEDLLSRIRTLQGAASDVAADAVAAVDA	-0.0473
HMADYSMDDNAWNAKKADIDEWFEANPDFSANKAITDGLFSIGDSQVEMRKRYWASIAGVFAGLPNSPIG	0.0121
HMAEANTEADFVAIGVRAELLPILQKLGVHTIEQLKGIKATKLFNDIPGMRKKLKLDAVQNPTLQEIEGWL	-0.146
HMAEAPGSVELLAERLRPWWEIHGGEWGSKTKALRFLFGDQAPVAGSYWRALEAAIAQIESTT	-0.692
HMAEKNALWEEDAVYAADSSALARDGYDAIVRTDKGGKKGYLVVGTGGRERFMPLQTLVMLGYLKK	-0.433
HMAEKRTAIITTARADIRQKPEATAPLAFEAVKDVVLELTDKPADGWVRVKHRDGSTGYIRINQI	0.0638
HMAELAKAKLDAAVQVALLKAGALDTDYLAYKLQGMDGVALDDKGSLTGWDTTLETLKSQYPTQFA	-0.368
HMAEPTLNERLREALSDPAKLKIAKAIKAKYPIITARDIDTFLNMHEKDIENGADPMDEFEEFFHANY	0.201
HMAEPYDEDKVMEHLYIKGKDVVIAHLKHLKEHNEHVWLKKGVEWMQKNQDRLGFDMMEVIYVVHNH	-0.833
HMAEQEELDAIRPDLDGQEIMDILGIKPGREVGAARNFLLELRLDEGPLGYDEAVSRLLTWWAERT	-0.0583
HMAETLLWADAAQEGLNRIVAAQPILVRISAAKRLRDASEQAAKAAGVSTVEIGHVQHASESLQFGDA	0.0809
HMAETLRLVGATNLNTLARARHPDDLAARNEFRRAIAQANPALFAGKSKVGSVSLPAGTVLALPPEV	0.0163
HMAEVDDESIKLYDGGYQSNTTKSRLNALLSEFGYDTEHVFQKQFEWFISIFDLTEKAMRTVPFSNGMRL	0.0627
HMAEVGDFTLAELIKVLFNEAGVLKAPVELRNDNTGGLQYRVGAYTDSETGWETIASIADLKGA	-0.734
HMAEWLLVQLTNGNWFYGEVIEKTDATIVLNTDILGKVSIQKLDIRRSISGPLTAAKRQEIEDSERAKD	-1.65
HMAFDDAHYKDMITSYLKKFKKGNRSEIENLIIPKLSEVLVEKQKKDKVKNLLQALRKDNQIRLKGKYWYL	0.422
HMAFIEADIGKRIKSLRNKKRITLESLAAETGFTKGYLSKVETSEKAPPVSTLGSIARALGVSISTLLGE	-1.31
HMAFKDDDVQKAYDRYMDRYGELSVLYSDNGLKVDDDLFYKNNIPPNGKFTKEFFDELYELVNMEFINNY	-0.173
HMAFRLPNGYGTIRRLTGNRRKPYVALVNPTQVFDDEKGTSHYKYDLLGTFAEKIDAYNAVMQYHKSPGGL	-1.13
HMAGAPANLAARLREQILQGAYHDGQRLPAERHLAAEHGVSRGTVREALRLLEQGALLTRKRGSGSYVTYP	-0.516
HMAGDVVVEVVGKVRDPQVVTLPKGSRVQDALEAAGGVKPGVNTTDQNLARLLVDGEQIRIGLSS	0.107
HMAGFGDSLEKMSDAVEALKLLMSTEDARNDQNIQKIARELKDVFNKYRTHLRKSYPDQYDRIKSTL	-0.742
HMAGGNHPTRLELLDSAAHIAERDGTSALTVDAITKSAGHAKGTFYIHFDDRADLLVEMHRR	-0.247
HMAGIPIHMSQLKQIILLLSQGYPIKGIARETGVSRNTIKGYLQTLTSQDLNVTDALKLENIQLEYLLRSP	-1.97

Sequence	soluble fraction (log2)
HMAGLYSLLLVELPMERLPEDLPAIKAAWLKTGDTEAFKVALQAMSSRGWTIAVPGKHRDTQMTQL	0.259
HMAGPVLTPEEAEVLRILADHGEMTVDNISAEGKMSAAVVLRGLGVLSAYGLVAPGGPGRWRSE	-0.806
HMAGTDLSERESEIAMLLLKGYPYKLIASRLYISESTVKSHVQNIYGKLGIHSRTELIEQFSAS	-0.649
HMAGTPAIVKWFNPTKGFGFVTPKEAGSDALLHASVLAKRGKRWLQEGTLVEVLIEEGPKGLVVSELLTIE	-0.84
HMAGTRRFELVEGSSSKFWEVTVADGSYTVTYGRIGTAGGSKTTESATAEADAEKLVREKLKKGYQEAGAA	0.102
HMAGTRVWSENGQLYVTAAVSGRANVYNVLGKLNRSLTFSAGETKSVSVPAGIYVVSLNNGKAYKVAV	-3.28
HMAGWIPVEERLPDDLTNPITRDAYVYPVTVDLGDVTDIRYYSFWRGHWYNQGPETMDDLVIAWMLLPEPY	-0.279
HMAHESYVKEQLLLSLTNHEDPIMQISLIEQLTKMHERNIIHELEKLTVDVQTNEEVKVQAYASLLILS	-0.869
HMAHKYYSIMRPVSIGTFPDNGTILGIVNFDTRQMVESIGKMAWGYINYGKPLTEKQISDYELVAE	-1.4
HMAHLNYQTVDINALIRHSLQLVSQDAQSRGIALQFTPRPELTTISADPDRLNQVLLNLYLNAMQD	-0.607
HMAHLSPNDAARLVGVSRPLLNQILDEGRITFFETAGGHRKIKLAAVLAYIKERDEVAAQLAAART	-0.724
HMAHSDEAWSVARRVARELDKILDGAGPRRTALVRAAAELRLSTRQIYNLLARYRADRTVTSLLPRR	-0.27
HMAHSWEAIRVKLQQIIDEEDKTKPLNDDQIKEKLAEAGIPNLARRTVAKYRKLLNIPTARFRKR	-0.993
HMAIDINKIYSEIKKKIPNQDNHIKEILSIIWRDFNNYQNIKSRSILINGEKSSPKKEIFNIIEDNINIPV	0.0633
HMAIDPLLDKGYEQYDKGEFTEAVKSFNRAIEIDPKNAEAHFLRAMTYQGLALSKLAVADLEKAIV	0.0903
HMAIGDYYINASALNVRSGEGTNYRIIGALPQGQKVQVISENSGWSKINYNGQTGYIGTRYLSKTPV	-0.264
HMAIHTSVTEHGEHDLTVRMEMEQVFAIEMAVVSHEQATMLERTFKANAEAIYQKLLGVMTQEYP	-2.42
HMAISEEEATNLALERVPGASAQDLRIQLEFDDGVQKYEGDIIYDGKEYDFEIDANTGTFLEWSE	-0.0521
HMAISSADRIVAELRTWISGASPGTQLPSSRTLAARYGASPVTVQKALHTLAGMGLVEARPGAGTFVRRQS	-1.42
HMAITVPEGATLSDAAVLLKQAGAVRSADAFLTRAKVFGGSTPIKAGEFVIPVQASNKDILAILQGGK	0.0742
HMAKIATTVYEQIRTAILNGELSNSERLVEEDLAVSMGISRTPVREALRRLAAEGLVDVSPNRGARVAE	-0.27
HMAKINFTSDAIDIGMVTRNDIEMLSFYQNVLGLTKDMEIPFPGLGVVNKLSFGSGFIKILVL	0.0804
HMAKLGITQREQEVLQLLVTGKTYKEIAAELFISLPTVKTHVSNIYSKAKVRNRLELSNLINYI	-3.37
HMAKNYYEILGLKSDATLPEIKKAFKKLSKKFHPDKNRDDDGYFESMFKSINEAYQVLIDEDKRATFDSHH	-0.758
HMAKPAALLFEHRFDGMAEMRFRENIVKNDDGSYTYDEYFLSMLDRAGLEKIVQENMEVWIAYAKQ	-2.1
